Biological target: taxol-stabilized microtubules
Test: co-sedimentation

fold weaker affinity against MBD not phosphorylated by aurora A: 5 fold
Substance: p150^glued MBD-(His)6 after incubation with aurora A protein kinase and ATP (domain or fragment)
